Measurements from the nanobody polyreactivity screen of Harvey et al. (2022).

assay: yeast display, Sf9 membrane polyspecificity reagent, FACS + sequencing; frameworks hold sequencing errors
In short: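 A nanobody's polyreactivity label depends on the gate it was sorted from. Yeast display cells were stained with 10% biotinylated, detergent-solubilized Sf9 membrane reagent for 1 hour at 4 °C, enriched on streptavidin microbeads and sorted by FACS. The low and high (top ~1%) gates were set on anti-HA fluorescence for expression and streptavidin fluorescence for reagent binding.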

| Sequence | polyreactivity (PSR sort gate) |
| --- | --- |
| QVQLVESGGGLVQAGGSLRLSCVASGFNFRGNAMGLYRQAPGKERELVATISSGGNTYYADSVKGRFTISRDNAKNTVYLQMNSLKPEDTAVYYCNASDGLPTKLNVYVEFDYWGQGTQVTVSS | low polyreactivity |
| QVQLVESGGGLVQAGGSLRLSCVASGRIFSVYAMGWYRQAPAKERELVAGITSSGGSTYYADSVKGRFTISRDNAKNTVYLQMNSLKPEDTAVYYCAAVSEYYKGYDYWGQGTQVTVSS | high polyreactivity |
| QVQLVESGGGLVQAGGSLRLSFAASGFTFGYYTMGWYRQAPGKERELVAAITSGGGTYYADSVKGRFTISRDNAKNTVYLQMNSLKPEDTAVYYCATTPVWYKVSRRYGYWGQGTQVTVSS | high polyreactivity |
| QVQLVESGGGLVQAGGSLRLSFAASGFTFYPYTKGWYRQAPGKEREFVAAISWNCGSTYYADSVKGRFTISRDNAKHTVYLQMNRLKPEDTAVYYCAADFDASRYEYWGQGTQVTVSS | low polyreactivity |
| QVQLVESGGGLVQAGGSLRLSFAASGINFRSYTMGWYRQAPGKERELVAGITRSGGSTYYADSVKGRFTISRDNAKNTVYLQMNSLKPEDSAVYYCAAKFRAGRSSYYWGHGTQVTVSS | high polyreactivity |
| QVQLVESGGGLVQAGGSLRLSFAASGLIFDSNAMGWYRQAPGKERELVASTYYADSVKGRFTISRDNAKNTVYLQMNSLKPEDTAVYYCATTSVYKSVTYDYWGQGTQVTVSS | low polyreactivity |
| QVQLVESGGGLVQAGGSLRLSFAASGRIFPFYAMGWYRQEPGKERELVAALSWNGGSTFYADSVKGRFTISRDNAKNSVYLQMNSLKPEDTAVYYCAADCYATYFLYDSCGQGTQVTVSS | low polyreactivity |
| QVQLVESGGGLVQAGGSLRLSFAASGRTFDRYDMGWYRQAPGKERELVATISSSGGSTYYADSVKGRFTISRDNAKNTVYLQMNSLKPEDTAVYYCAADPSGDYWGQGTQVTVSS | low polyreactivity |
| QVQLVESGGGLVQAGGSLRLSFAASGSIFVKYAMGWYRQAPGKERELVAAITTGVGSTYYADSLKGRFTISRDNAKNTVYLQMNSLKPEDTAVYYCAVRPPRVRTVFYGGNYWGQGTQVTVSS | low polyreactivity |
| QVQLVESGGGLVQAGGSLRLSFAASGSIFYYYAMGWYRQAPGKERELVAAINYSGGSTYADSVKGRFTISLDNAKNTVYLQMNSLKPEDTAVYYCATRLYGYWPYGFEYWGQGTQVTVSS | low polyreactivity |
| QVQLVESGGGLVQAGGSLRLSFAASGSIINAYAMGWYRQAPGKERELVAAINSGGTTYYADSVKGRFTISRDNAKNTVYLQLNSLKPEDTAVYYCAKTRSYGRSGVSRRDGFYYWGQGTQVTVSS | high polyreactivity |
| QVQLVESGGGLVQAGGSLRLSFAASGSTFRRYDMGWYRQAPGKERELVADISDRGSRTYYADSVKGRFTISRDNAKKTVYFQMNSLEPEYTAVYYCAAEAVGNTSPGDYWGQGTQVTVSS | high polyreactivity |
| QVQLVESGGGLVQAGGSLRLSFAPSGRIVPNAMGWYRQAPGKDREMVAAISRSGGSTYYADSVKGRFTISRDNAKNTVYLQMNSLKPEDTAVYYCAKRSTSQSLQGEYWGQGTQVTVSS | high polyreactivity |
| QVQLVESGGGLVQAGGSLRLSFDASGSIFSFYAMGGYSQAPGKERELVAAIRWSGGRTYYADSVKGRFTISRDPAKNTVYLQMNSLKPEDTAVYYCAADKYLDYDYWGQGTQVTVSS | high polyreactivity |
| QVQLVESGGGLVQAGGSLRLSFSASGSTFTSNAMGWYRQAPGKERELVASISGSGGRTYYADSVKGRFTISRDNAKNTVYLQMNSLKPEDTAVYYCNAESRNLYSTQFDYWGQGTQVTVSS | low polyreactivity |
| QVQLVESGGGLVQAGGSLRLSGAAKGSTFRQYAMGWYRQATGKERELVAAISSGGRTNYPDSVKGRFTISRDNAKNTVYFHMNSQKPVDTAVYYSAARFYFQFRRFRRMDYWGQGTQVTVSS | high polyreactivity |
| QVQLVESGGGLVQAGGSLRLSGAASGRIFYSNAMGWYRQAHGKERELVAAITRAGSTNYADSVKGSFTISRDIAKNTVYLQMNSLKPDDTAVYDCAATYGCSVFEYDYWGQGTQVTVSS | low polyreactivity |
| QVQLVESGGGLVQAGGSLRLSGAASGRNFSTNAMGWYRPAPGKERELVAAITSGGNTYADSVKGRFTISRDNAKNTVYLQMNSLKPEDTAVYYCAARLYWGRYNYWGQGTQVTVSS | high polyreactivity |
| QVQLVESGGGLVQAGGSLRLSGAASGRTFVSYTMGWYRQAPGKERQLVAAISDDGDSTYYADSVKGRFTISRDYAKNTVYLQMNSLKPEDTAVYYCAAGEYQYFWFPFDYWGQGTQVTVSS | low polyreactivity |
| QVQLVESGGGLVQAGGSLRLSGAASGRTLYCYAMGWSRQAPGKEREFVAAMSRSGGSTYYADSVKGRFTISRDNAKNTVYLQMNRLKPEETAVYYCADDRSFLQIYKAGPQYRSNYWGQGTQVTVSS | high polyreactivity |
| QVQLVESGGGLVQAGGSLRLSGAASGSIFRDNGMGWYRPAPGKERELVAAINSGDSTYYADSVKGRFTISRDNAKNTVYLQLNSLKPEDTAVYYCNADDRRALSQRQYDWYDYWGQGTQVTVSS | low polyreactivity |
| QVQLVESGGGLVQAGGSLRLSGAASGSTFIINAMGWSSQAPGKELELVAAISGRGTRTYYADSVKGRFTISRDNAKNTVYLQMNSLNPEDTAVYSCAALDTAGPYNTLDIYDHWGQGTQVTVSS | high polyreactivity |

| Sequence | polyreactivity (PSR sort gate) |
| --- | --- |
| QVQLVESGGGLVQAGGSLRLSGAASGYIFLGNAMGWYRQAPGKERELVAAISRSGGSTYYADSVKGRFTISRDNAKNTVYFHMNSLKPEYTAVYYCAADLPNPKWYGYDYWGQGTQVNVSS | high polyreactivity |
| QVQLVESGGGLVQAGGSLRLSGDASGSTFIYNAMGWYRQAPGKERELVAAIDWSGGDTYYADSVKGRFTISRDKAKNTVYLLMNSLKPEDTAVYYCAAVKRGGFYWGQGTQVTVSS | high polyreactivity |
| QVQLVESGGGLVQAGGSLRLSRAASGFTLAYYAMGWYRQAPGKERELVAAITADTGTTYYADSVKGRFTISRDNAKNTVYLQMNSLKPEDTAVYYCATRDVFYDDDYWGQGTQVTVSS | high polyreactivity |
| QVQLVESGGGLVQAGGSLRLSRAASGRSYVYAMGWYRQAPGTETEVVAAISTISSSTYYADSVKGRFTISRDNAKNTVYLQMNSLKPEDTAVYYCAADYSQYYYYGWIDSDYWGQGTQVTVSS | high polyreactivity |
| QVQLVESGGGLVQAGGSLRLSRAASGSTFSGYTMGWYRQAPGKERELVAAISTSGGRTSYADSVKGRFTISRDNAKTSVYLQMNSLKPEDTAVYYCAARRWERRVRPGYYPYDYWGQGTQVTVSS | high polyreactivity |
| QVQLVESGGGLVQAGGSLRLSSAAAGRLLSRDAMGWYRQAPGKERELVATLSSGGGTYYADSVKGRFTISRDNSKNTVYLQMNSLKRVDTAVYYCAVQAWYGRYYYWGQGTQVTVSS | high polyreactivity |
| QVQLVESGGGLVQAGGSLRLSSAACGTIFVLNAMGWYRPAPGKERELVAAITNVGSTYYADSVKGRFTISRDNAKNTFYLQMNSLKPEDTAVYYCNADPGEVLVGYDYWGQGTQVTVSS | low polyreactivity |
| QVQLVESGGGLVQAGGSLRLSSAASGFIFNTNAMGWYRQAPGKERELVAAISGGGSTYYAVSVKGRFTLSRDNAKQTVYLQMNSLKPDDTAVYYCAAVPFYRYDYWGQGTQVTVSS | low polyreactivity |
| QVQLVESGGGLVQAGGSLRLSSAASGFTFGSYAMGWYRQAPGKERELVAAIRASGGRTYYADSVKGRFTISRDNAKNTVYLQMNSLKPEDTAVYYCAAQLPMGKRYYYWGQGTQVTVSS | high polyreactivity |
| QVQLVESGGGLVQAGGSLRLSSAASGFTFNANAMGWYRQAPGKERELVAVITRSGGRTYYADSVKGRFTISRDNAKNTVYLQMNSLKPEDTAVYYCAADIGYTYEYYYWGQGTQVTVSS | high polyreactivity |
| QVQLVESGGGLVQAGGSLRLSSAASGFTFPWYAMGWYSQAPGKEREVVAVISSSGGSTYYADSVKGRFTISRDNAKNTVYLQMNSLKPEDTAVYYCARAYGGRGYDIRYDYWGKGTQVTVSS | high polyreactivity |
| QVQLVESGGGLVQAGGSLRLSSAASGFTFSHYAMGWYRQAPGKERELVAAITWSGGSTYYADSVKGRFTISRDNAKNTVYLQINSLKPEDTAVYYCAAESYLDGGEYWGQGTQVTVSS | high polyreactivity |
| QVQLVESGGGLVQAGGSLRLSSAASGFTFVINDMGWYRQAPGKEMELVADITSGGDTYYADSVKGRFTISRDNAKNTVYLQMNSLKPEDTAVYYCAADIYPDWIYLLYGYWGQGTQGTVSS | low polyreactivity |
| QVQLVESGGGLVQAGGSLRLSSAASGFTFVNYAMGWYRQAPGKERELVAAITRGGSTYYADSVKGRFTISRDNAKNTVYLNMNSLIPEDTAVYYCSARYFYLFRPTEYYYWGQGTQVTVSS | high polyreactivity |
| QVQLVESGGGLVQAGGSLRLSSAASGFTFVRYTMGWYRQAPGKERELVAAINASGDRTYYADSVKGRFTISRDNAKNTVYLQMNCLIPEDTAVFYCAAGSSLYYSHMGYWGQGTQVTVSS | high polyreactivity |
| QVQLVESGGGLVQAGGSLRLSSAASGFTFVRYTMGWYRQAPGKERELVAVIRRGGSTYYADSVKGRFTISRDNAKNTVYLQMNSLKPEDTAVYYCNALSALAVEDGYWGLGTQVTVSS | low polyreactivity |
| QVQLVESGGGLVQAGGSLRLSSAASGFTLGYYAMGWYRQAPGKEREMVAAIRSSGTRTYYADSVKGRFTISRDNAKYTVYLLMNSLKPEDTAVYYCAARTPSYEMDYWGQGTQVTVSS | high polyreactivity |
| QVQLVESGGGLVQAGGSLRLSSAASGFTLSRYAMGWYRQAPGKERELVASITSGGSTNYADSVKGRFTISRDNAKNTVYLQMNSLKPEDTAVYYCAARYPYRSYKLSHSYARPYGYWGQGTQVTVSS | high polyreactivity |
| QVQLVESGGGLVQAGGSLRLSSAASGFTYYFYAMGWYRQAPGKERELVAGISTSGTSTYYADSVKGRFTISRDNAKNTVYFQMNRLKPEDTAVSYCAKRGDAIVPTSSKGNYWGQGTQVTVSS | low polyreactivity |
| QVQLVESGGGLVQAGGSLRLSSAASGIFSYYAIGWYRQAPGKERELVAAISSSGGSTYYADSVKGRFTISRDNAKNTVYLQMNSLKPEDTAVYYCAVSGGTSRRYYYWGLGTQVTVSS | high polyreactivity |
| QVQLVESGGGLVQAGGSLRLSSAASGIFWNYAMGWYRQAPGKERELVAAISGSGGSTYYADSVKGRFTISRDNAKNTVYLQINSLKPEDTAVYYCAAEPGNHIWIYDYWGQGTQVTVSS | low polyreactivity |
